Where two headings read alike, the source gives them in different places.

Series [1] addresses T1, E. coli homoserine transsuccinylase (MetA), wild type, SEQ ID NO: 2 (plasmid pKP413GAP) (Escherichia coli, UniProt P07623). As to conditions: pH 7.5, read-out: Activity (%) in the presence of 1 mM SAM.
For series [2], the target named is T1, E. coli homoserine transsuccinylase (MetA), wild type, SEQ ID NO: 2 (plasmid pKP413GAP). The series is described as follows: biochemical. As to conditions: pH 7.6, read-out: Activity (%) in the presence of 1 mM L-methionine.
Series [3] relates to homoserine transsuccinylase. The conditions noted are these: cell extract of E. coli W3110 transformant; 1 mM homoserine, 0.1 mM succinyl-CoA, 50 mM Tris/Cl pH 7.6.
Series [4] has as its system homoserine transsuccinylase. The series is described as follows: Homoserine transsuccinylase activity test (Lee et al., 5,5'-dithiobis(2-nitrobenzoic acid), 412 nm), activity and inhibition by SAM. Type of series: biochemical, E. coli. As to conditions: cell extract; 3 mM homoserine, 0.3 mM succinyl-CoA, 50 mM potassium phosphate buffer pH 7.5.

Regarding `C[S+](CC[C@H](N)C(=O)[O-])C[C@H]1O[C@@H](n2cnc3c(N)ncnc32)[C@H](O)[C@@H]1O` (some centres unmarked) [SAM, S-Adenosylmethionine], the activity at 1000 µM in series [1] is 0.5%. In the case of `CSCC[C@H](N)C(=O)O` [L-methionine], in series [2], the activity at 1000 µM is 2%. For the molecule “pBaBmetAext2: MetA variant with altered, extended carboxy-terminus from amino acid 297 onwards (SEQ ID No. 12) (SYIHQYLLVNNSTELWMHTRLIKRPHCDEWQGGA)”, the “Activity (U/mg)” value came out at 0.045 U/mg in series [3] and 0.173 U/mg in series [4]. The like results for “pBaBmetAext: MetA variant with altered, extended carboxy-terminus from amino acid 297 onwards (SEQ ID No. 10) (SYIHHYLLVNNSTELWMHTRLIKRPHCDEWQGGA)” were, in that order, 0.011 U/mg and 0.082 U/mg.

B1: pKP413GAP: E. coli wild-type homoserine transsuccinylase (MetA, SEQ ID No. 2) expressed from starting plasmid pKP413GAP under the GAPDH promoter (protein, listed as Escherichia coli)
chain: MPIRVPDELPAVNFLREENVFVMTTSRASGQEIRPLKVLILNLMPKKIETENQFLRLLSNSPLQVDIQLLRIDSRESRNTPAEHLNNFYCNFEDIQDQNFDGLIVTGAPLGLVEFNDVAYWPQIKQVLEWSKDHVTSTLFVCWAVQAALNILYGIPKQTRTEKLSGVYEHHILHPHALLTRGFDDSFLAPHSRYADFPAALIRDYTDLEILAETEEGDAYLFASKDKRIAFVTGHPEYDAQTLAQEFFRDVEAGLDPDVPYNYFPHNDPQNTPRASWRSHGNLLFTNWLNYYVYQITPYDLRHMNPTLD
As for B1, the results for the “Activity (U/mg)” value in series [3] and in series [4] were 0.155 U/mg and 0.62 U/mg, respectively.

These data come from US7195897B2, “Feedback-resistant homoserine transsuccinylases having a modified c-terminus” (priority 2002, dated 2007).
